Laboratory results taken from US20240166737A1 (Janssen / Centocor, published 2024).

Assays:
[1] = molecular target: T1, CD3 epsilon on human T-cells (human, UniProt P07766 23-207); experiment: cell-based or functional assay
[2] = molecular target: T1, CD3 epsilon on human T-cells; experiment: T-cell binding assay, FIG. 15
[3] = molecular target: T1, CD3 epsilon on human T-cells; experiment: cell-based or functional assay; remark: listed apart in the source
[4] = molecular target: T2, MSLN with Met593Val on cells homozygous for SNP rs1135210 (SNP G|G) (human, UniProt Q13421 296-598); experiment: binding to homozygous SNP-positive cells
T2 construct: also called homozygous SNP-positive cells; BxPC3, NCI-H322
T2 sequence (Q13421 other isoform, or with tags, fused parts or gaps M593V M593V limits assumed): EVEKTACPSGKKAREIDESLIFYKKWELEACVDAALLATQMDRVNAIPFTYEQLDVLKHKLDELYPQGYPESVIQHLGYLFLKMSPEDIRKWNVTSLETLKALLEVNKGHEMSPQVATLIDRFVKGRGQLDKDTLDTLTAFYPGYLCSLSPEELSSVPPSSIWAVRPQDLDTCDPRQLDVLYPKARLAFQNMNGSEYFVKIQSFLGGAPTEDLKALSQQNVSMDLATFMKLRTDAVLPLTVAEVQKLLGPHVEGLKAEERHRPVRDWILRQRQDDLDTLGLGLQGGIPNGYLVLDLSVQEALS

[5] = molecular target: T3, 12 AA stub region peptide LVLDLSMQEALS (human); experiment: SPR
T3 construct: free N-terminus; also called 12 AA Peptide
T3 peptide: LVLDLSMQEALS

[6] = molecular target: T4, 14 AA stub (a.a. 290-303 of SEQ ID NO: 247) (human); experiment: SPR, mAb captured, peptide injected
T4 peptide: GYLVLDLSMQEALS
Protocol: (§1) The binding was assessed by SPR. Briefly, GAH-Fc was used to capture mAbs on C4 sensor chip followed by antigen injection starting at 30 nM (14 amino acid stub), 100 nM (10-13 amino acid stubs), or 1000 nM (7-9 amino acid stubs) progressing in a 3-fold dilution series in single cycle kinetics mode. HBSP+0.01% BSA was used in the assay.

[7] = molecular target: T5, 13 AA stub (a.a. 291-303 of SEQ ID NO: 247) (human); experiment: SPR, mAb captured, peptide injected
T5 peptide: YLVLDLSMQEALS
Protocol: as §1

[8] = molecular target: T6, 11 AA stub (a.a. 293-303 of SEQ ID NO: 247) (human); experiment: SPR, mAb captured, peptide injected
T6 peptide: VLDLSMQEALS
Protocol: as §1

[9] = molecular target: T7, 10 AA stub (a.a. 294-303 of SEQ ID NO: 247) (human); experiment: SPR, mAb captured, peptide injected
T7 peptide: LDLSMQEALS
Protocol: as §1

[10] = molecular target: T8, 9 AA stub (a.a. 295-303 of SEQ ID NO: 247) (human); experiment: SPR, mAb captured, peptide injected
T8 peptide: DLSMQEALS
Protocol: as §1

[11] = molecular target: T9, 7 AA stub (a.a. 297-303 of SEQ ID NO: 247) (human); experiment: SPR, mAb captured, peptide injected
T9 peptide: SMQEALS
Protocol: as §1

[12] = molecular target: T10, MSNW10, recombinant full length human MSLN (human, UniProt Q13421 296-598); experiment: SPR, recombinant full-length human MSLN
T10 construct: also called MSNW10.002; FL-MSLN
T10 sequence (Q13421 other isoform, or with tags, fused parts or gaps limits assumed): as the sequence (Q13421 other isoform, or with tags, fused parts or gaps M593V M593V limits assumed) above, with V298M counted along it

[13] = molecular target: T11, MSNW11, recombinant soluble (shed) MSLN lacking the C-terminal 7 AAs (human, UniProt Q13421 296-591); experiment: H838 cell binding with shed MSLN (MSNW11) added
T11 construct: domain: soluble MSLN lacking the C-terminal 7 AAs; also called MSNW11.002; soluble MSLN
T11 sequence (Q13421 other isoform, or with tags, fused parts or gaps limits assumed): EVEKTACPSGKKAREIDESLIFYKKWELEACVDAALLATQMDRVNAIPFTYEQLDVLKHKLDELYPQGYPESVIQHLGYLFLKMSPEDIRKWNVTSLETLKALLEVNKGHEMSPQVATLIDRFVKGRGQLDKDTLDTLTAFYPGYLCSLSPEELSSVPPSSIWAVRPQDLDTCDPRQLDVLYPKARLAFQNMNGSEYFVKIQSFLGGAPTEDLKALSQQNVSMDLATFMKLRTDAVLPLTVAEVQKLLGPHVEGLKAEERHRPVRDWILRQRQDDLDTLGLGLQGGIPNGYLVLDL
Description: (§2) Table 16 lists the immunization campaigns, antigens used, and number of clones returned at each stage of screening. Clones from which antibody sequences were successfully recovered were first screened for binding to recombinant full length human MSLN (MSNW10) and H838 cells that express MSLN on the cell surface. Binders were further screened for binding to cells in the presence of recombinant soluble MSLN lacking the C-terminal 7 AAs (MSNW11). This form of recombinant MSLN represented the product of cleavage at the closest cleavage site to the C-terminus known at the time, therefore, it theoretically represented the longest form of shed MSLN. The final concentration of shed MSLN in the assays was 100 nM.

[14] = molecular target: T12, 8 AA stub (a.a. 296-303 of SEQ ID NO: 247) (human); experiment: competition of OVCAR8 cell binding by the peptide
T12 construct: also called 8 AA Peptide; peptide of the last 8 C-terminal amino acids
T12 peptide: LSMQEALS

[15] = molecular target: T13, human MSLN on the cell surface (human, UniProt Q13421 296-598); experiment: high content imaging, surface staining of OVCAR8 cells
T13 construct: on cells stands the processed GPI-anchored 40 kDa MSLN; also called membrane MSLN; MSLN on H838, OVCAR-8 (OVCAR8), OVCAR-8 K1/C8, SK-OV-3 cells
T13 sequence (Q13421 other isoform, or with tags, fused parts or gaps limits assumed): as the sequence (Q13421 other isoform, or with tags, fused parts or gaps M593V M593V limits assumed) above, with V298M counted along it
Protocol: OVCAR8 cells were cultured in RPMI 1640 medium supplemented with 10% FCS, 1% L-glutamine and 1% Gentamycin and seeded in Greiner CELLSTAR plate one day before experiment. 24 h after seeding, antibody mixture was prepared by diluting MSLN and control antibodies in Table 21 in full media containing CellMask™ Deep Red Plasma Membrane Stain (ThermoFisher, C10046) in 12 concentrations each with 3 folds dilution starting from 20 μg/ml and 20 μl of which were added directly to the cells in 20 μl. Antibodies were allowed for binding to the cell surface for 2h inside the incubator (37°) C. and the surface bound antibodies were fixed for 15 min at RT by directly adding 30 ul of 10% Formaldehyde (04018-1, Polysciences). Afterwards residual Formaldehyde was removed by washing the cells twice with PBS and the primary antibodies were stained with secondary antibodies (Alexa Fluor 488 goat anti-human IgG, Invitrogen, A11013) complemented with Hoechst 33342 (H3570, ThermoFisher) and HCS CellMask™ Deep Red Stain (ThermoFisher, H32721) in PBS for 1h at RT. After removing unbound antibodies and other dyes by washing the cells 3 times with PBS cells were imaged on the CellVoyager 7000 (Yokogawa, Tokyo, Japan) using a 40×/0.95 objective. Of each well, 9 fields were imaged. Image analysis was performed with Acapella (PerkinElmer, Waltham, MA, USA) and the results stored in Phaedra (OpenAnalytics, Antwerp, Belgium). Data analysis was done in R (www.r-project.org).
The data was then fitted using the four-parameter logistic using least-squares regression, keeping the lower boundary fixed at 0.

[16] = molecular target: T13, human MSLN on the cell surface; experiment: binding to H838 cells with and without 100 nM recombinant shed MSLN (MSNW11); the two curves lie on each other
Description: as §2

[17] = molecular target: T10, MSNW10, recombinant full length human …; experiment: SPR, additional experiments
[18] = molecular target: T3, 12 AA stub region peptide LVLDLSMQEALS; experiment: SPR, mAb captured, peptide injected
Protocol: as §1

[19] = molecular target: T12, 8 AA stub (a.a. 296-303 of SEQ ID NO: …); experiment: SPR, mAb captured, peptide injected
Protocol: as §1

T1 sequence (P07766 23-207 limits assumed): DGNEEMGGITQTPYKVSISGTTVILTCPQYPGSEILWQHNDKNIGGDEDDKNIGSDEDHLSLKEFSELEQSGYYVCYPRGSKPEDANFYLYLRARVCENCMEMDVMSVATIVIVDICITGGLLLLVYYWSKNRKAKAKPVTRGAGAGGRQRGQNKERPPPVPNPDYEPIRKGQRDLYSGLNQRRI

B1: MNC3B187 (bispecific antibody)
scFv: EVQLVESGGGLVKPGGSLRLSCAASGFTFSRYNMNWVRQAPGKGLEWVSSISTSSNYIYYADSVKGRFTFSRDNAKNSLDLQMSGLRAEDTAIYYCTRGWGPFDYWGQGTLVTVSSGGSEGKSSGSGSESKSTGGSDIQMTQSPSSLSASVGDRVTITCRARQSIGTAIHWYQQKPGKAPKLLIKYASESISGVPSRFSGSGSGTDFTLTISSLQPEDFATYYCQQSGSWPYTFGQGTKLEIK
VH: QVQLVESGPGQVKPSQTLSLTCAISGDSVSSNSAAWNWIRQSPSRGLEWLGRTYYRSKWYNDYAVSVKSRITINPDTSKNQFSLQLNSVTPEDTAVYYCARRDYSSGGFDYWGQGTTVTVSS
VL: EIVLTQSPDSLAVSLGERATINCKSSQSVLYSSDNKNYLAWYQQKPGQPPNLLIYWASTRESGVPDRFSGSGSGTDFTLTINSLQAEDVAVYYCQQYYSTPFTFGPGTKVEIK
notes: Bipod: MSNB457 Fab x CD3W245 HL scFv-Fc; also called CD3W245 HL containing Bipod
AC90 [nM], cytotoxicity, 1:1 E:T, 72 hours [1]: 0.016 nM
Max. Activity, cytotoxicity, 1:1 E:T, 72 hours [1]: 88%
qAC50 [nM], cytotoxicity, 1:1 E:T, 72 hours [1]: 0.0035 nM
EC50 [2]: 2 nM

B2: MNC3B130 (bispecific antibody)
scFv: DIQMTQSPSSLSASVGDRVTITCRARQSIGTAIHWYQQKPGKAPKLLIKYASESISGVPSRFSGSGSGTDFTLTISSLQPEDFATYYCQQSGSWPYTFGQGTKLEIKGGSEGKSSGSGSESKSTGGSEVQLVESGGGLVKPGGSLRLSCAASGFTFSRYNMNWVRQAPGKGLEWVSSISTSSNYIYYADSVKGRFTFSRDNAKNSLDLQMSGLRAEDTAIYYCTRGWGPFDYWGQGTLVTVSS
VH: QVQLVESGPGQVKPSQTLSLTCAISGDSVSSNSAAWNWIRQSPSRGLEWLGRTYYRSKWYNDYAVSVKSRITINPDTSKNQFSLQLNSVTPEDTAVYYCARRDYSSGGFDYWGQGTTVTVSS
VL: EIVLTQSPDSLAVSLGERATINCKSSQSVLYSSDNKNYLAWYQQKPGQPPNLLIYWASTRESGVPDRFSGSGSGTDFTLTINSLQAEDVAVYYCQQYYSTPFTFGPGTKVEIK
notes: MSNB457 Fab x CD3W245 LH scFv; Fc chain 1 T350V/L351Y/F405A/Y407V, Fc chain 2 T350V/T366L/K392/T394W; also called mrMSLN-MSNB457 x W245LH alternative heterodimerization scaffold
cytotoxicity EC50, NCI-H838 cells, pan T-cells 5:1 E:T, 48 hours [3]: 0.15 nM
binding result [4]: no binding

B3: MSNB124 (antibody, V domains shown)
VH: QVQLQQSGPGLVKPSQTLSLTCAISGDSVSSNSVAWHWIRQSPSRGLEWLGRTYHRSKWYNDYAVSVKSRITINPDTSKNQFSLQLNSVTPEDTAVYYCARQILGALDYWGQGTLVTVSS
VL: DIVMTQTPLSLPVTPGEPASISCRSSQSLQFGNGNYLDWYLQKPGQSPQLLIYLGSNRASGVPDRFSGSGSGTDFTLKISRVEAEDVGVYYCMQVLQIPFTFGPGTKVDIK
notes: mAb
binding result [5]: binds
binding result [6]: binds
Kd [7]: 14 nM
binding result [8]: no binding (tested: 100 nM)
binding result [9]: no binding (tested: 100 nM)
binding result [10]: no binding (tested: 1000 nM)
binding result [11]: no binding (tested: 1000 nM)
Kd [12]: 6.4 nM
binding result [13]: no binding (tested: 100 nM)
binding result [14]: no binding
IC50 [15]: 0.0735 µg/mL
Maximum Value (arbitrary units) [15]: 1.46e+07 arbitrary units
EC50 (read off the curve) [16]: ~0.4 nM

B4: MSLNB569 (antibody, V domains shown)
VH: QVQLQQSGPGLVKPSQTLSLTCAISGDSVSSTRAAWNWIRQSPSRGLEWLGRTYYRSKWYNDYTVSVKSRITINPDTSKNQFSLHLNSVTPEDSAVYFCARGNVGRVDFWGQGTLVTVSS
VL: EIVMTQSPLSLPVTPGEPASISCRSSQSLLHSDGYNYLDWYLQKPGQSPQLLIYLGSNRASGVPDRFSGSGSDTDFTLKISRVEAEDVGVYYCMQGLRTPLTFGPGTKVDIK
notes: mAb; also called MSLNB569.001; MSNB569
Kd [17]: 3.4 nM
Kd [6]: 1.99 nM
Kd [7]: 5.99 nM
Kd [18]: 4.06 nM
binding result [8]: no binding (tested: 100 nM)
binding result [9]: no binding (tested: 100 nM)
binding result [10]: no binding (tested: 1000 nM)
binding result [19]: no binding (tested: 1000 nM)
binding result [11]: no binding (tested: 1000 nM)
binding result [13]: no binding (tested: 100 nM)
IC50 [15]: 0.166 µg/mL
Maximum Value (arbitrary units) [15]: 1.6e+07 arbitrary units
